The source of these data is patent US20250296959A1, “B7-H3 TARGETING PEPTIDES AND CONSTRUCTS THEREOF” (Mariana Oncology Inc., priority 2024, published 2025).

The target in one assay is T1, 2Ig B7-H3 (Homo sapiens, UniProt Q5ZPR3).
T1 sequence (Q5ZPR3 29-316 isoform Q5ZPR3-2 limits assumed): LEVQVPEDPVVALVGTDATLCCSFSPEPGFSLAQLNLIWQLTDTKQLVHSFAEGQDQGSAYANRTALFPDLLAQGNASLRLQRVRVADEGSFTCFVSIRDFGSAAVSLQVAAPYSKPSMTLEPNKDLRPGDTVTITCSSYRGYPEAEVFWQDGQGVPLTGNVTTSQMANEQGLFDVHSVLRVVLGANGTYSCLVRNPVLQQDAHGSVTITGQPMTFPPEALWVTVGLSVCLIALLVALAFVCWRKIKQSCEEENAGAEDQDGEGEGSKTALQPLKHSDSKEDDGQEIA
The assay is described as follows: SPR binding affinity to 2Ig B7-H3. The following applies: 37° C.; read-out: 2Ig B7-H3_KD (nM) at 37° C.

Another assay deals with T2, human 4lg B7-H3 (Homo sapiens, UniProt Q5ZPR3).
T2 sequence (Q5ZPR3 29-534): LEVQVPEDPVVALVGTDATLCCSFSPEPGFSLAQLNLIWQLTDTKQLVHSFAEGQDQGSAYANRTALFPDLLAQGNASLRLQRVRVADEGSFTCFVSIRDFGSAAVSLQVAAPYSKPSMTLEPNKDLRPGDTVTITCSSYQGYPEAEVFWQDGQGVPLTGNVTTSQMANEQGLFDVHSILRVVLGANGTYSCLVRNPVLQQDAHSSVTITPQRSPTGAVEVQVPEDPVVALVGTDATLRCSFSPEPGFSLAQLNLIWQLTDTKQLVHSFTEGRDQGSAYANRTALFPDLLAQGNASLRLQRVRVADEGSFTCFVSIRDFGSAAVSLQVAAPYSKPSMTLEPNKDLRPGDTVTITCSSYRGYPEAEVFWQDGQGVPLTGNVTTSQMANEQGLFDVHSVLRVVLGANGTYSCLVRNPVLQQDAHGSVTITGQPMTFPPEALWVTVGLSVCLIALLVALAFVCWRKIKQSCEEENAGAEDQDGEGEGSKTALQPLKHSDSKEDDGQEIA
The assay is described as follows: Affinity determination by surface plasmon resonance (SPR) to 4Ig B7-H3. To be noted: SPR KD—37° C., 4Ig B7-H3; 37° C. flow cell temperature.

Assay [1] addresses T3, B7-H3 on Calu-6 cells (human, UniProt Q5ZPR3 29-534).
T3 construct: whole, on cells
T3 sequence (looked up): T2 sequence (Q5ZPR3 29-534)
The assay is described as follows: 177Lu-labelled peptide on Calu-6 cells, % cell associated fraction; C = >50%.

Assay [2] has as its target T3, B7-H3 on Calu-6 cells. Nature of the assay: 177Lu-labelled peptide on Calu-6 cells, % cell associated fraction; B = 25<%<=50.

Starred links: 1 amine or outer side, 2 acyl side, 3 side chain; linkers in the order of their positions; H or OH if unused. Positions of bridges follow the written chain, without caps; N, C: chain ends. Non-standard residues stand in square brackets, D forms with d. Residues, ends and D or L forms follow the SMILES beside them. Groups on a side chain read outwards from the residue. Primed or numbered codes have the meaning given here. *: point of attachment. Ala(piperidin-4-yl) = O=C([C@H](CC1CCN([*:3])CC1)N[*:1])[*:2]; DOTA = O=C(O)CN1CCN(CC(=O)O)CCN(CC(=O)*)CCN(CC(=O)O)CC1; Phe(4-COOH) = N[C@@H](Cc1ccc(C(=O)O)cc1)C(=O)O; Trp(5-F) = N[C@@H](Cc1c[nH]c2ccc(F)cc12)C(=O)O; PEG4′ = 4x 3-(2-aminoethoxy)propanoic acid; 1Nal = N[C@@H](Cc1cccc2ccccc12)C(=O)O; Ala(4-THP) = N[C@@H](CC1CCOCC1)C(=O)O; Val(3-OH) = CC(C)(O)[C@H](N)C(=O)O; 4Pal = N[C@@H](Cc1ccncc1)C(=O)O; aThr = C[C@H](O)[C@H](N)C(=O)O; Chg = N[C@H](C(=O)O)C1CCCCC1; Tle = CC(C)(C)[C@H](N)C(=O)O; hLeu = CC(C)CC[C@H](N)C(=O)O; Sar = CNCC(=O)O

Regarding `CC(=O)N[C@@H](CCC(C)C)C(=O)N[C@@H](Cc1ccc(O)cc1)C(=O)N[C@H]1CSSC[C@@H](C(=O)N[C@@H](Cc2c[nH]c3ccc(F)cc23)C(=O)N[C@@H](Cc2ccccc2)C(=O)N[C@H](C(=O)O)C(C)(C)O)NC(=O)[C@H](Cc2ccc(O)cc2)NC(=O)[C@H](C(C)C)NC(=O)[C@H](CC(=O)O)NC(=O)[C@H](CC2CCN(C(=O)CN3CCN(CC(=O)O)CCN(CC(=O)O)CCN(CC(=O)O)CC3)CC2)NC(=O)[C@H](CCCCN)NC(=O)CNC(=O)[C@H](C(C)(C)C)NC1=O` [compound 344, Ac-hLeu-Y-C-Tbg-G-K-Pip(DOTA)Ala-D-V-Y-C-5FW-F-hydroxyVal-COOH] (Ac-[hLeu]YC[Tle]GK[Ala(piperidin-4-yl)](DOTA)DVYC[Trp(5-F)]F[Val(3-OH)]-OH; disulfide 3-11), the Kd was 6200 nM on 2Ig B7-H3 and 0.001 to 0.01 µM on human 4lg B7-H3.

B1: Cpd 286 (peptide)
peptide: Ac-[hLeu]YCVG[Ala(piperidin-4-yl)][Phe(4-COOH)]DVYC[Trp(5-F)]FP[dK](DOTA)-NH2
modifications: disulfide 3-11
SMILES: CC(=O)N[C@@H](CCC(C)C)C(=O)N[C@@H](Cc1ccc(O)cc1)C(=O)N[C@H]1CSSC[C@@H](C(=O)N[C@@H](Cc2c[nH]c3ccc(F)cc23)C(=O)N[C@@H](Cc2ccccc2)C(=O)N2CCC[C@H]2C(=O)N[C@H](CCCCNC(=O)CN2CCN(CC(=O)O)CCN(CC(=O)O)CCN(CC(=O)O)CC2)C(N)=O)NC(=O)[C@H](Cc2ccc(O)cc2)NC(=O)[C@H](C(C)C)NC(=O)[C@H](CC(=O)O)NC(=O)[C@H](Cc2ccc(C(=O)O)cc2)NC(=O)[C@H](CC2CCNCC2)NC(=O)CNC(=O)[C@H](C(C)C)NC1=O
B1: in the assay with B7-H3 on Calu-6 cells [1], the “% cell associated fraction” value was over 50%.

B2: Cpd 190 (peptide)
peptide: Ac-[hLeu]YCVGK[4Pal]D[Chg]YC[Trp(5-F)]FT[dK](DOTA)-NH2
modifications: disulfide 3-11
SMILES: CC(=O)N[C@@H](CCC(C)C)C(=O)N[C@@H](Cc1ccc(O)cc1)C(=O)N[C@H]1CSSC[C@@H](C(=O)N[C@@H](Cc2c[nH]c3ccc(F)cc23)C(=O)N[C@@H](Cc2ccccc2)C(=O)N[C@H](C(=O)N[C@H](CCCCNC(=O)CN2CCN(CC(=O)O)CCN(CC(=O)O)CCN(CC(=O)O)CC2)C(N)=O)[C@@H](C)O)NC(=O)[C@H](Cc2ccc(O)cc2)NC(=O)[C@H](C2CCCCC2)NC(=O)[C@H](CC(=O)O)NC(=O)[C@H](Cc2ccncc2)NC(=O)[C@H](CCCCN)NC(=O)CNC(=O)[C@H](C(C)C)NC1=O
For the molecule B2, in the assay with B7-H3 on Calu-6 cells [1], the “% cell associated fraction” value is over 50%.

B3: Cpd 74 (peptide)
peptide: Ac-[hLeu]YCV[Sar]KYDVYCWFT[dK](DOTA)-NH2
modifications: disulfide 3-11
SMILES: CC(=O)N[C@@H](CCC(C)C)C(=O)N[C@@H](Cc1ccc(O)cc1)C(=O)N[C@H]1CSSC[C@@H](C(=O)N[C@@H](Cc2c[nH]c3ccccc23)C(=O)N[C@@H](Cc2ccccc2)C(=O)N[C@H](C(=O)N[C@H](CCCCNC(=O)CN2CCN(CC(=O)O)CCN(CC(=O)O)CCN(CC(=O)O)CC2)C(N)=O)[C@@H](C)O)NC(=O)[C@H](Cc2ccc(O)cc2)NC(=O)[C@H](C(C)C)NC(=O)[C@H](CC(=O)O)NC(=O)[C@H](Cc2ccc(O)cc2)NC(=O)[C@H](CCCCN)NC(=O)CN(C)C(=O)[C@H](C(C)C)NC1=O
In the case of B3, in the assay with B7-H3 on Calu-6 cells [2], the “% cell associated fraction” value lay within 25 to 50%.

Ac-[hLeu]YC[Tle]GK[Ala(4-THP)]DVYC[1Nal]FP[dK]([PEG4′-DOTA])-NH2 (disulfide 3-11) [Cpd 259]: in the assay with B7-H3 on Calu-6 cells [2], the “% cell associated fraction” value was in the range of 25 to 50%.

For the molecule Ac-[hLeu]YCVGKYD[Chg]YC[Trp(5-F)]FT[dK](DOTA)-NH2 (disulfide 3-11) [Cpd 215], in the assay with B7-H3 on Calu-6 cells [1], the “% cell associated fraction” value is over 50%.

Consider Ac-[hLeu]YCIGK[Ala(4-THP)]DVYC[Trp(5-F)]F[Val(3-OH)][dK]([PEG4′-DOTA])-OH (disulfide 3-11) [Cpd 308], for which the “% cell associated fraction” value in the assay with B7-H3 on Calu-6 cells [1] is over 50%.

For the molecule Ac-[hLeu]YCVGKYDVYC[Trp(5-F)]F[aThr][dK](DOTA)-NH2 (disulfide 3-11) [Cpd 162], the “% cell associated fraction” value in the assay with B7-H3 on Calu-6 cells [2] lay within 25 to 50%.

B4: Cpd 179 (peptide)
peptide: Ac-[hLeu]YC[Tle]GKYDVYC[1Nal]FT[dK](DOTA)-NH2
modifications: disulfide 3-11
SMILES: CC(=O)N[C@@H](CCC(C)C)C(=O)N[C@@H](Cc1ccc(O)cc1)C(=O)N[C@H]1CSSC[C@@H](C(=O)N[C@@H](Cc2cccc3ccccc23)C(=O)N[C@@H](Cc2ccccc2)C(=O)N[C@H](C(=O)N[C@H](CCCCNC(=O)CN2CCN(CC(=O)O)CCN(CC(=O)O)CCN(CC(=O)O)CC2)C(N)=O)[C@@H](C)O)NC(=O)[C@H](Cc2ccc(O)cc2)NC(=O)[C@H](C(C)C)NC(=O)[C@H](CC(=O)O)NC(=O)[C@H](Cc2ccc(O)cc2)NC(=O)[C@H](CCCCN)NC(=O)CNC(=O)[C@H](C(C)(C)C)NC1=O
For B4, in the assay with B7-H3 on Calu-6 cells [2], the “% cell associated fraction” value was 25 to 50%.

In the case of Ac-[hLeu]YCVGKYDVYC[Trp(5-F)]FP[dK](DOTA)-NH2 (disulfide 3-11) [Cpd 160], the “% cell associated fraction” value in the assay with B7-H3 on Calu-6 cells [2] lay in the range of 25 to 50%.

As for Ac-[hLeu]YCVGK[Ala(4-THP)]DVYC[Trp(5-F)]FP[dK]([PEG4′-DOTA])-NH2 (disulfide 3-11) [Cpd 282], in the assay with B7-H3 on Calu-6 cells [2], the “% cell associated fraction” value was 25 to 50%.

B5: Cpd 200 (peptide)
peptide: Ac-[hLeu]YCVGK[Ala(4-THP)]DVYC[Trp(5-F)]FT[dK](DOTA)-NH2
modifications: disulfide 3-11
SMILES: CC(=O)N[C@@H](CCC(C)C)C(=O)N[C@@H](Cc1ccc(O)cc1)C(=O)N[C@H]1CSSC[C@@H](C(=O)N[C@@H](Cc2c[nH]c3ccc(F)cc23)C(=O)N[C@@H](Cc2ccccc2)C(=O)N[C@H](C(=O)N[C@H](CCCCNC(=O)CN2CCN(CC(=O)O)CCN(CC(=O)O)CCN(CC(=O)O)CC2)C(N)=O)[C@@H](C)O)NC(=O)[C@H](Cc2ccc(O)cc2)NC(=O)[C@H](C(C)C)NC(=O)[C@H](CC(=O)O)NC(=O)[C@H](CC2CCOCC2)NC(=O)[C@H](CCCCN)NC(=O)CNC(=O)[C@H](C(C)C)NC1=O
Consider B5, for which the “% cell associated fraction” value with B7-H3 on Calu-6 cells [1] is over 50%.

B6: Cpd 288 (peptide)
peptide: Ac-[hLeu]YCVGK[Ala(4-THP)]DVYC[Trp(5-F)]FP[dK](DOTA)-OH
modifications: disulfide 3-11
SMILES: CC(=O)N[C@@H](CCC(C)C)C(=O)N[C@@H](Cc1ccc(O)cc1)C(=O)N[C@H]1CSSC[C@@H](C(=O)N[C@@H](Cc2c[nH]c3ccc(F)cc23)C(=O)N[C@@H](Cc2ccccc2)C(=O)N2CCC[C@H]2C(=O)N[C@H](CCCCNC(=O)CN2CCN(CC(=O)O)CCN(CC(=O)O)CCN(CC(=O)O)CC2)C(=O)O)NC(=O)[C@H](Cc2ccc(O)cc2)NC(=O)[C@H](C(C)C)NC(=O)[C@H](CC(=O)O)NC(=O)[C@H](CC2CCOCC2)NC(=O)[C@H](CCCCN)NC(=O)CNC(=O)[C@H](C(C)C)NC1=O
B6: the “% cell associated fraction” value with B7-H3 on Calu-6 cells [2] is 25 to 50%.

B7: Cpd 157 (peptide)
peptide: Ac-[hLeu]YC[Tle]GK[4Pal]DVYCWFT[dK](DOTA)-NH2
modifications: disulfide 3-11
SMILES: CC(=O)N[C@@H](CCC(C)C)C(=O)N[C@@H](Cc1ccc(O)cc1)C(=O)N[C@H]1CSSC[C@@H](C(=O)N[C@@H](Cc2c[nH]c3ccccc23)C(=O)N[C@@H](Cc2ccccc2)C(=O)N[C@H](C(=O)N[C@H](CCCCNC(=O)CN2CCN(CC(=O)O)CCN(CC(=O)O)CCN(CC(=O)O)CC2)C(N)=O)[C@@H](C)O)NC(=O)[C@H](Cc2ccc(O)cc2)NC(=O)[C@H](C(C)C)NC(=O)[C@H](CC(=O)O)NC(=O)[C@H](Cc2ccncc2)NC(=O)[C@H](CCCCN)NC(=O)CNC(=O)[C@H](C(C)(C)C)NC1=O
Take B7: in the assay with B7-H3 on Calu-6 cells [2], the “% cell associated fraction” value fell in the range of 25 to 50%.
